Reference: patent US20210380647A1 (AFFILOGIC, published 2021)

What was measured:
TNFa mutant S95C/G148C = molecular target: T1, TNFa mutant S95C/G148C (UniProt P01375 77-233, S95C; G148C, disulfide bridges between subunits via C95 and C148); experiment: ELISA of N11 on TNFa mutants (FIG. 12)
T1 construct: Positions probably count on the mature soluble chain; also called stabilized trimer of TNFa; stabilized TNFa trimer

TNFa mutant Y119A = molecular target: T2, TNFa mutant Y119A (UniProt P01375 77-233, Y119A); experiment: ELISA of N11 on Y119 mutants (FIG. 12A)
T2 construct: The text speaks of 'Y119 mutants'; also called Y119 mutants; Y119 TNFalpha variants
T2 sequence (P01375 77-233 Y195A): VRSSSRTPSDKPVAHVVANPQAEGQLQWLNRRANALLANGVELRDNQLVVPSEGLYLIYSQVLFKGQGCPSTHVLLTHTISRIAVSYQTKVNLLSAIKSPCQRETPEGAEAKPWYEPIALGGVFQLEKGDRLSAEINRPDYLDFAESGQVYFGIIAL

TNFa mutant Y119R = molecular target: T3, TNFa mutant Y119R (UniProt P01375 77-233, Y119R); experiment: ELISA of N11 on Y119 mutants (FIG. 12A)
T3 construct: The text speaks of 'Y119 mutants'; also called Y119 mutants; Y119 TNFalpha variants
T3 sequence (P01375 77-233 Y195R): as the sequence (P01375 77-233 Y195A) above, with A119R counted along it

murine TNFa = molecular target: T4, murine TNFa (murine, UniProt P06804 80-235); experiment: ELISA at a single concentration (EC100) on a plate functionalized with mTNFa (FIG. 3)
T4 construct: also called mTNFa; mouse TNF
T4 sequence (looked up): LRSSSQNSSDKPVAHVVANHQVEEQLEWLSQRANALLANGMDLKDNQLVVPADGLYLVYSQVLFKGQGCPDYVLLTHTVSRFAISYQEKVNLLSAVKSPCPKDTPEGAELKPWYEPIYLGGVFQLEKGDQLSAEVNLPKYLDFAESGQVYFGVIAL
Experimental: Biotinylated antigens are immobilized on streptavidin-coated plates as described above, except that the blocking step is performed for 1h at room temperature. For the identification of the positive clones, 100 μl of E. coli crude extracts are applied to wells with or without immobilized antigen for 1 h at RT. The binding is visualized using anti-RGSHis antibody HRP conjugate (Qiagen) which detects RGSHis6 tag from the variant and a solution at 1 mg/ml of o-phenylenediamine substrate (OPD) in revelation buffer (0.05 M citric acid, 0.05% hydrogen peroxide). Absorbance at 450 nm is measured using an ELISA plate reader. Quantitative ELISAs is done in the same manner, except purified protein is used.
A plate was functionalized with hTNFa and mTNFa.

T1 sequence (P01375 77-233 S171C/G224C): as the sequence (P01375 77-233 Y195A) above, with S95C, A119Y, G148C counted along it

binding result (TNFa mutant S95C/G148C): no binding | binding result (TNFa mutant Y119A): binds | binding result (TNFa mutant Y119R): binds | binding result (murine TNFa): binds
B1: N11 (designed binder)
chain: MVKVKFVMFGKEKEVDTSKIVHVMRQGKLVHFWYEDNGKIDKGFVPEKDAPKELLDMLARAEREK
notes: Variant of Sac7d selected by ribosome display on biotinylated hTNFa; also called Sac7d variant N11; Nanofitin N11
